From patent US20220308056A1 (OMEROS, published 2022) come the findings set out here.

The target of the test is T1, MASP-2/C1-INH complex (fluid-phase, from human serum or plasma) (human, UniProt O00187 16-686; P05155 22-500).
T1 construct: also called C1-INH/MASP-2 complex
The test can be described thus: sandwich ELISA; mAb coated as capture, anti-C1-INH polyclonal detection, mannan-activated human serum. (An ELISA detects its analyte on a solid surface through an enzyme-linked reagent.)

T1 sequence (O00187 16-686, chain 1 of 2): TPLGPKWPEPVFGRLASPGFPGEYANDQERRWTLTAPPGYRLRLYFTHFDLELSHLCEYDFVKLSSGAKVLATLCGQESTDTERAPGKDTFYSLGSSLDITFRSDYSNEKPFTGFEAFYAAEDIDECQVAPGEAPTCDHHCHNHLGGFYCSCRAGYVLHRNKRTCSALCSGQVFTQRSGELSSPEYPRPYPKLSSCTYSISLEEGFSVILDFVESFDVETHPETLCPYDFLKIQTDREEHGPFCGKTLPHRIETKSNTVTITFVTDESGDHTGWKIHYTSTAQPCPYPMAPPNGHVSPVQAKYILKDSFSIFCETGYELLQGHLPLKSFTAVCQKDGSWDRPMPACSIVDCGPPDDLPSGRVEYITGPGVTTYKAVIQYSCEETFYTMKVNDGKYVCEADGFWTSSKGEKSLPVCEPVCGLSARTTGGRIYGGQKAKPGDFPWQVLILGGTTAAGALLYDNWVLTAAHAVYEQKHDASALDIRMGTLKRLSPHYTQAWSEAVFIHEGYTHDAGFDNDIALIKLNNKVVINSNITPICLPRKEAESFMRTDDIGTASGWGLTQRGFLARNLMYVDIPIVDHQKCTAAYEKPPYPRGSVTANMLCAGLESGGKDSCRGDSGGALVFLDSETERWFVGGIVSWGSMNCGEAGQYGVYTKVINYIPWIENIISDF
T1 sequence (P05155 22-500, chain 2 of 2): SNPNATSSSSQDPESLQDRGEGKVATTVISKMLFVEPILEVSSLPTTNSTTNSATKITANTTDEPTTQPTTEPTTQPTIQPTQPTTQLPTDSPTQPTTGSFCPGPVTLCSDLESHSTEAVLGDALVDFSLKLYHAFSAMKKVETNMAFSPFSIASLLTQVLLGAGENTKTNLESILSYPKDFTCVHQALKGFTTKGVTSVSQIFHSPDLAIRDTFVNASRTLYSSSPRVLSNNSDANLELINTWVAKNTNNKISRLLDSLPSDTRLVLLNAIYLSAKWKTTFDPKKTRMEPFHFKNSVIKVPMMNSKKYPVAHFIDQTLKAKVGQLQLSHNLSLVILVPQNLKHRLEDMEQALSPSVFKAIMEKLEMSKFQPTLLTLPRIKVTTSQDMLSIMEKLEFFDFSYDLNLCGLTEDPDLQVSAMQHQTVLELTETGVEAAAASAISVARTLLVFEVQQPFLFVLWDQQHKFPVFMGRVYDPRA
Protocol: The microtiter plate was blocked with 280 μl/well of 1% (w/v) BSA in TBS buffer for 1 hr at RT. (ii) Activated control serum was prepared by diluting pooled normal human serum (NHS) to 20% v/v in Tris-buffered saline (TBS; 10 mM Tris-C₁, 140 mM NaCl, pH 7.4) with 5 mM Ca²⁺. Mannan-agarose (100 uL, Sigma cat. M9917) was washed twice with five volumes of TBS/Ca²⁺, and resuspended to 100 μl in the same buffer. 500 μl of 20% serum was added to the 100 μl of mannan-agarose and incubated at room temperature (RT) with gentle shaking or rotation for 30 minutes. EDTA was then added to an end concentration of 10 mM and incubated for a further 2 minutes. The agarose was then spun down and the activated serum was aspirated off and stored at −20° C. (iii) Serial dilutions were prepared from the activated control serum over a range of 0.1% to 20% and the in TBS/Ca²⁺. The blocking buffer was discarded and 100 ul/well of samples or control sera was added to the plate and incubated for 1 hour at room temperature. […] (v) The plate was then washed 3× as described above. 100 μl/well anti-rabbit HRP (Sigma, 1:5000) was added and incubated for a further 45 min. (vi) The plate was then washed 3× as described above and 100 μl/well TMB substrate was added. When blue color developed, 50 μl/well 2N H₂SO₄ was added to stop the reaction and measured at the OD₄₅₀ nm.

B1: anti-MASP-2 mAb clone #C7 (antibody, V domains shown)
VH: EVKLVESGGGLVKPGGSLKLSCAASGFTFSSYLMSWVRQTPEKRLEWVATISGGGGNTYHPDSMKGRFTISRDNAKNTLYLQMSSLRSEDTALYYCARHGDFGNYFDYWGQGTTLTVSS
VL: DIVMSQSPSSLAVSAGEKVTMSCKSSQSLLNSGTQKNYLAWYQQKPGQSPKLLIYWASTRESGVPDRFTGSGSGTDFTLTISSVQAEDLAVYYCKQSYNLFTFGAGTKLELKR
notes: From hybridomas of immunized MASP-2 KO mice; also called mAb #C7; mAb #7
Take B1: the binding result is listed as “binds”.
